In assay [1] the target is T1, human IL-1α (human, UniProt P01583 113-271).
T1 sequence (looked up): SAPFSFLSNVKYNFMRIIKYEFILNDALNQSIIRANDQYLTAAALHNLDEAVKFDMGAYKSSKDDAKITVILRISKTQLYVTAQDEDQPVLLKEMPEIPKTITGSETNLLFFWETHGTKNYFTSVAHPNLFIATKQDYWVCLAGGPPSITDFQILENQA
In words: cell-based or functional assay.

In assay [2] the target is T1, human IL-1α. In words: Table 62 IC50; RBA presumed.

Numbering of substitutions follows the chain as printed.

B1: ABT1-122-750x (other)
VL: DIQMTQSPSSLSASVGDRVAITCSASQHIWTEISWYQQKPGKAPKLLIYGSASRQKGVPSRFSGSGSGTDFTLTISSLQPEDFATYYCKQFAYFPNTFGQGTKVEIKR
Take B1: the ND50 with human IL-1α [1] came out at 0.713 nM.

B2: ABT1-95-21 (other)
VL: DIQMTQSPSSLSASVGDRVTITCRASQPIVRNLRWYQQKPGKAPKLLIYSSSYLEPGVPSRFSGSGSGTDFTLTISSLQPEDFATYYCQQGYRWPVTFGQGTKVEIKR
notes: VK dAb
B2 had an ND50 in the assay with human IL-1α [1] of 0.61 nM. Further, in the assay with human IL-1α [2], the midpoint of inhibition, the IC50, lay at 0.5 nM.

B3: ABT1-95-169 (other)
VL: B2 VL with S50A, S51V, Y87H
B3 displayed an ND50 with human IL-1α [1] of 0.093 nM.

B4: ABT1-95-171 (other)
VL: B2 VL with Q27R, S51V, Y87H
Molecule B4 had an ND50 with human IL-1α [1] of 0.059 nM.

B5: ABT1-95-170 (other)
VL: B2 VL with Q27R, S50A, Y87H
Consider B5, for which, in the assay with human IL-1α [1], the ND50 was 0.2 nM.

B6: ABT1-95-166 (other)
VL: B2 VL with S51K, Y87H
B6 came in with an ND50 with human IL-1α [1] of 0.035 nM.

B7: ABT1-95-184 (other)
VL: B2 VL with Q27R, P28T, I29P, S51R, Y87H, Q89L, V96P
Molecule B7 displayed an ND50 with human IL-1α [1] of 0.006 nM.

B8: ABT1-95-178 (other)
VL: B2 VL with S51V, Y87H, Q89R
The molecule B8 showed an ND50 with human IL-1α [1] of 0.004 nM.

B9: ABT1-95-A6 (other)
VL: B2 VL with Q27K, I29G, L33M, S50A, S51K, Y87H, Q89K, T97Q
B9 gave an ND50 in the assay with human IL-1α [1] of 0.024 nM.

B10: ABT1-95-172 (other)
VL: B2 VL with Q27R, S50A, S51V, Y87H
Consider B10, for which the ND50 in the assay with human IL-1α [1] came to 0.171 nM.

B11: ABT1-95-173 (other)
VL: B2 VL with T22S, Q27R, Y87H, Q89R
In the assay with human IL-1α [1], B11 had an ND50 of 0.151 nM.

B12: ABT1-95-A3 (other)
VL: B2 VL with Q27K, I29G, L33M, S51V, Y87H, Q89L, V96P
For the molecule B12, in the assay with human IL-1α [1], the ND50 came to 0.011 nM.

B13: ABT1-95-176 (other)
VL: B2 VL with Q27R, S50A, S51V, Y87H, Q89R
The molecule B13 yielded an ND50 with human IL-1α [1] of 0.027 nM.

B14: ABT1-95-167 (other)
VL: B2 VL with S51R, T69A, Y87H
In the assay with human IL-1α [1], B14 had an ND50 of 0.469 nM.

B15: ABT1-95-A5 (other)
VL: B2 VL with Q27R, P28T, I29P, S51R, Y53F, Y87H, Q89L, V96P
As to B15, in the assay with human IL-1α [1], the ND50 was found to be 0.016 nM.

B16: ABT1-95-179 (other)
VL: B2 VL with Y87H, Q89R, V96P
In the case of B16, the ND50 in the assay with human IL-1α [1] was determined as 0.022 nM.

B17: ABT1-95-168 (other)
VL: B2 VL with Y53F, Y87H
The molecule B17 gave an ND50 in the assay with human IL-1α [1] of 2.3 nM.

B18: ABT1-95-175 (other)
VL: B2 VL with Q27R, S50A, Y87H, Q89R
In the assay with human IL-1α [1], B18 displayed an ND50 of 0.017 nM.

B19: ABT1-95-31 (other)
VL: B2 VL with R93L
notes: VK dAb
B19: the ND50 with human IL-1α [1] came out at 3.3 nM. Further, in the assay with human IL-1α [2], the 50% inhibitory concentration (IC50) – broadly, the concentration at which inhibition is half-maximal – was over 0.5 nM.

B20: ABT1-95-27 (other)
VL: B2 VL with G41R, Q89A
notes: VK dAb
For B20, the ND50 in the assay with human IL-1α [1] is 1 nM. The IC50 with human IL-1α [2] is 0.5 nM.

B21: ABT1-95-34 (other)
VL: B2 VL with Q27A, Y87H
notes: VK dAb
In the assay with human IL-1α [1], B21 had an ND50 of 1 nM. Moreover, the IC50 in the assay with human IL-1α [2] was 0.1 nM.

B22: ABT1-95-47 (other)
VL: B2 VL with Q27M, Y87H
notes: VK dAb
Regarding B22, the ND50 in the assay with human IL-1α [1] stood at 0.139 nM. For the same molecule, half-maximal inhibition with human IL-1α [2] (IC50) was put at 0.1 nM.

B23: ABT1-95-44 (other)
VL: B2 VL with Q27S, Y87H
notes: VK dAb
Turning to B23, the ND50 with human IL-1α [1] turned out to be 0.15 nM. Also, in the assay with human IL-1α [2], the concentration for half-maximal inhibition (IC50) is under 0.1 nM.

B24: ABT1-95-25 (other)
VL: B2 VL with Q89D
notes: VK dAb
In the case of B24, in the assay with human IL-1α [1], the ND50 came to 0.43 nM. In addition, in the assay with human IL-1α [2], it took 0.5 nM to reach half-maximal inhibition (IC50).

B25: ABT1-95-23 (other)
VL: B2 VL with I29T
notes: VK dAb
Consider B25, for which the ND50 in the assay with human IL-1α [1] worked out at 0.5 nM. In the assay with human IL-1α [2], this molecule yielded an IC50 of 0.5 nM.

B26: ABT1-95-22 (other)
VL: B2 VL with R93H
notes: VK dAb
The molecule B26 had an ND50 with human IL-1α [1] of 1 nM. The molecule also registered an IC50 with human IL-1α [2] of 0.5 nM.

B27: ABT1-95-92 (other)
VL: B2 VL with Y53T, Y87H
notes: VK dAb
Turning to B27, in the assay with human IL-1α [1], the ND50 came to 0.5 nM. The same molecule came in with a concentration for half-maximal inhibition (IC50) with human IL-1α [2] of under 0.1 nM.

B28: ABT1-95-85 (other)
VL: B2 VL with S26G, S51G, Y87H, Q89L
notes: VK dAb
Take B28: in the assay with human IL-1α [1], the ND50 was 0.713 nM. Also, the IC50 in the assay with human IL-1α [2] is 0.2 nM.

B29: ABT1-95-32 (other)
VL: B2 VL with R93S
notes: VK dAb
In turn, B29 gave an ND50 with human IL-1α [1] of 1.2 nM. For the same molecule, the IC50 with human IL-1α [2] was over 0.5 nM.

B30: ABT1-95-64 (other)
VL: B2 VL with I48V, Y49H, Y87H, I106V
notes: VK dAb
Molecule B30 returned an ND50 with human IL-1α [1] of 0.438 nM. For the same molecule, the IC50 in the assay with human IL-1α [2] was 3 nM.

B31: ABT1-95-29 (other)
VL: B2 VL with R93Q
notes: VK dAb
With B31, the ND50 with human IL-1α [1] was found to be 1 nM. The IC50 with human IL-1α [2] was over 0.5 nM.

B32: ABT1-95-24 (other)
VL: B2 VL with Q89C
notes: VK dAb
B32 had an ND50 in the assay with human IL-1α [1] of 0.27 nM. This molecule had a half-inhibitory concentration (IC50) with human IL-1α [2] of 0.5 nM.

B33: ABT1-95-33 (other)
VL: B2 VL with Q89R
notes: VK dAb
On to B33, for which, in the assay with human IL-1α [1], the ND50 was found to be 1 nM. The same molecule registered a 50% inhibitory concentration (IC50) with human IL-1α [2] of 0.5 nM.

B34: ABT1-95-26 (other)
VL: B2 VL with Q89G
notes: VK dAb
In the assay with human IL-1α [1], B34 gave an ND50 of 0.71 nM. Besides, in the assay with human IL-1α [2], half-maximal inhibition (IC50) required 0.5 nM.

B35: ABT1-95-30 (other)
VL: B2 VL with G91S
notes: VK dAb
In turn, B35 registered an ND50 with human IL-1α [1] of over 10 nM. Besides, the IC50 with human IL-1α [2] was over 1 nM.

B36: ABT1-95-80 (other)
VL: B2 VL with S51V, Y87H
notes: VK dAb
In the assay with human IL-1α [1], B36 gave an ND50 of 0.008 nM. For the same molecule, it took 0.3 nM to reach half-maximal inhibition in the assay with human IL-1α [2] (IC50).

B37: ABT1-95-28 (other)
VL: B2 VL with R93G
notes: VK dAb
B37 came in with an ND50 in the assay with human IL-1α [1] of 2 nM. The half-inhibitory concentration (IC50) in the assay with human IL-1α [2] is over 0.5 nM.

B38: ABT1-95-41 (other)
VL: B2 VL with Q27Y, Y87H
notes: VK dAb
With B38, in the assay with human IL-1α [1], the ND50 is 0.15 nM. In addition, the IC50 with human IL-1α [2] is under 0.1 nM.

B39: ABT1-95-67 (other)
VL: B2 VL with S50A, Y87H
notes: VK dAb
In turn, B39 had an ND50 in the assay with human IL-1α [1] of 0.044 nM. In the assay with human IL-1α [2], the IC50 amounted to 0.1 nM.

B40: ABT1-149 (other)
VL: DIQMTQSPSSLSASVGDRVTITCRASQSISSYLNWYQQKPGKAPKLLIGGLSGLQSGVPSRFSGSGSGTDFTLTISSLQPEDFATYYCMQWWRWPSTFGQGTKVEIKRAAAEQKLISEED
Consider B40, for which the ND50 with human IL-1α [1] worked out at 100 nM.

B41: ABT1-97 (other)
VH: EVQLLESGGGLVQPGGSLRLSCAASGFTFWEYDMYWVRQAPGKGLEWVSRISGSGRYTYYADSVKGRFTISRDNSKNTLYLQMNSLRAEDTAVYYCAKRSLTRPSQFDYWGQGTLVTVSS
Consider B41, for which, in the assay with human IL-1α [1], the ND50 was 3000 nM.

B42: ABT1-141-29 (other)
VL: DIQVTQSPSSLSASVGDRVTITCRASQWIQKQLAWYQLKPGKAPKLLIYSSSYLQSGVPSRFSGSGSGTDFTLTISSLQPEDFATYYCQQHLRVPFTFGQGTKVEIKR
In the assay with human IL-1α [1], B42 gave an ND50 of 20 nM.

B43: ABT1-141-33 (other)
VL: B42 VL with V4M, Y53W, F96M
In turn, B43 returned an ND50 in the assay with human IL-1α [1] of 3 nM.

B44: ABT1-141-32 (other)
VL: B42 VL with V4M, V19I, F96M
B44 registered an ND50 with human IL-1α [1] of 10 nM.

B45: ABT1-141-562 (other)
VL: B42 VL with V4M, S26N, L38Q, Y53W, F96M
Take B45: in the assay with human IL-1α [1], the ND50 was over 10 nM.

B46: ABT1-141-31 (other)
VL: B42 VL with V4M, L38Q, Y53W, F96M
B46: in the assay with human IL-1α [1], the ND50 amounted to 2 nM.

B47: ABT1-99 (other)
VH: EVQLLESGGGLVQPGGSLRLSCAASGFTFGKYSMTWVRQAPGKGLEWVSVIDPWGHYTYYADSVKGRFTISRDNSKNTLYLQMNSLRAEDTAVYYCAKSVDATLLRRYFDYWGQGTLVTVSS
Regarding B47, in the assay with human IL-1α [1], the ND50 was determined as 500 nM.

The values above are taken from US20090291081A1 (AbbVie / Abbott, published 2009).
